First the molecules themselves.
B1: Ribonuclease HI, P0A7Y4 (parent)
chain: MLKQVEIFTDGSCLGNPGPGGYGAILRYRGREKTFSAGYTRTTNNRMELMAAIVALEALKEHCEVILSTDSQYVRQGITQWIHNWKKRGWKTADKKPVKNVDLWQRLDAALGQHQIKWEWVKGHAGHPENERCDELARAAAMNPTLEDTGYQVEV

Variants of B1 are the subject of the series. Conditions: Escherichia coli (strain K12), pH 3.2, Thermal, CD, glycine-HCl 10 mM, reversible: yes, structure 2RN2, whole UniProt chain shown; for ddG of mutation (higher = less stable): 53 °C.

Regarding A52F V74L, the “ddG of mutation (higher = less stable)” value is -0.03 kcal/mol; the Tm was determined as 53.1 °C; the “change of melting temperature, mutant - wild type (higher = more stable)” value (from here on “change of melting temperature, mutant”) was found to be 0.1 °C; the “unfolding enthalpy (van 't Hoff)” value stood at 99.8 kcal/mol.

Consider A52F V74A, for which the midpoint of thermal melting (Tm) was 48.4 °C; the “change of melting temperature, mutant” value is -4.6 °C; the “unfolding enthalpy (van 't Hoff)” value came out at 85.8 kcal/mol.

As to A52G V74L, the “ddG of mutation (higher = less stable)” value was 1.4 kcal/mol; the Tm amounted to 48.4 °C; the “change of melting temperature, mutant” value is -4.6 °C; the “unfolding enthalpy (van 't Hoff)” value amounted to 97.8 kcal/mol.

A52V V74A: the “ddG of mutation (higher = less stable)” value was 0.52 kcal/mol; the Tm turned out to be 51.3 °C; the “change of melting temperature, mutant” value is -1.7 °C; the “unfolding enthalpy (van 't Hoff)” value stood at 107 kcal/mol.

As for A52V V74L, the “ddG of mutation (higher = less stable)” value was -2.43 kcal/mol; the melting temperature (Tm) amounted to 61 °C; the “change of melting temperature, mutant” value came to 8.07 °C; the “unfolding enthalpy (van 't Hoff)” value worked out at 126 kcal/mol.

Consider A52L V74A, for which the “ddG of mutation (higher = less stable)” value was -0.36 kcal/mol; the midpoint of thermal melting (Tm) is 54.2 °C; the “change of melting temperature, mutant” value was 1.2 °C; the “unfolding enthalpy (van 't Hoff)” value is 105 kcal/mol.

On to A52L V74L, for which the “ddG of mutation (higher = less stable)” value was -1.49 kcal/mol; the Tm was 57.9 °C; the “change of melting temperature, mutant” value was found to be 4.9 °C; the “unfolding enthalpy (van 't Hoff)” value was determined as 118 kcal/mol.

Consider A52G, for which the Tm came to 44.1 °C; the “change of melting temperature, mutant” value was -8.9 °C; the “unfolding enthalpy (van 't Hoff)” value amounted to 91 kcal/mol.

For A52T, the “ddG of mutation (higher = less stable)” value amounted to 0.8 kcal/mol; the Tm stood at 50.3 °C; the “change of melting temperature, mutant” value is -2.7 °C; the “unfolding enthalpy (van 't Hoff)” value worked out at 108 kcal/mol.

Turning to A52D, the “ddG of mutation (higher = less stable)” value was 1.9 kcal/mol.

As for A52H, the Tm is 41.2 °C; the “change of melting temperature, mutant” value is -11.8 °C; the “unfolding enthalpy (van 't Hoff)” value was 84.7 kcal/mol.

Consider A52K, for which the “ddG of mutation (higher = less stable)” value worked out at 5.9 kcal/mol; the midpoint of thermal melting (Tm) was found to be 33.5 °C; the “change of melting temperature, mutant” value is -19.5 °C; the “unfolding enthalpy (van 't Hoff)” value was 70.8 kcal/mol.

As to A52M, the “ddG of mutation (higher = less stable)” value was -0.5 kcal/mol; the Tm stood at 54.6 °C; the “change of melting temperature, mutant” value is 1.6 °C; the “unfolding enthalpy (van 't Hoff)” value was 112 kcal/mol.

Turning to A52N, the “ddG of mutation (higher = less stable)” value is 1.8 kcal/mol; the Tm is 47.1 °C; the “change of melting temperature, mutant” value was -5.9 °C; the “unfolding enthalpy (van 't Hoff)” value came to 95.6 kcal/mol.

With A52Y, the “ddG of mutation (higher = less stable)” value amounted to 2.3 kcal/mol; the melting temperature (Tm) came to 45.4 °C; the “change of melting temperature, mutant” value was -7.6 °C; the “unfolding enthalpy (van 't Hoff)” value was 70.8 kcal/mol.

Turning to A52Q, the “ddG of mutation (higher = less stable)” value stood at 1.2 kcal/mol; the midpoint of thermal melting (Tm) turned out to be 49.1 °C; the “change of melting temperature, mutant” value was -3.9 °C; the “unfolding enthalpy (van 't Hoff)” value stood at 90.3 kcal/mol.

Take A52S: the “ddG of mutation (higher = less stable)” value stood at 1.8 kcal/mol; the melting temperature (Tm) turned out to be 47.2 °C; the “change of melting temperature, mutant” value was -5.8 °C; the “unfolding enthalpy (van 't Hoff)” value came out at 118 kcal/mol.

With A52C, the “ddG of mutation (higher = less stable)” value is -0.8 kcal/mol; the Tm is 55.5 °C; the “change of melting temperature, mutant” value stood at 2.5 °C; the “unfolding enthalpy (van 't Hoff)” value came out at 128 kcal/mol.

As for A52F, the Tm worked out at 51.5 °C; the “change of melting temperature, mutant” value was -1.5 °C; the “unfolding enthalpy (van 't Hoff)” value is 89 kcal/mol.

For A52I, the “ddG of mutation (higher = less stable)” value was -1.9 kcal/mol; the Tm is 59.2 °C; the “change of melting temperature, mutant” value amounted to 6.2 °C; the “unfolding enthalpy (van 't Hoff)” value turned out to be 84.8 kcal/mol.

As to A52P, the “ddG of mutation (higher = less stable)” value was 1.6 kcal/mol; the Tm turned out to be 47.6 °C; the “change of melting temperature, mutant” value is -5.4 °C; the “unfolding enthalpy (van 't Hoff)” value is 93 kcal/mol.

Take A52L: the “ddG of mutation (higher = less stable)” value was -1.3 kcal/mol.

As to A52V, the “ddG of mutation (higher = less stable)” value is -1.7 kcal/mol; the Tm was determined as 58.5 °C; the “change of melting temperature, mutant” value is 5.5 °C; the “unfolding enthalpy (van 't Hoff)” value worked out at 128 kcal/mol.

A52E: the “ddG of mutation (higher = less stable)” value stood at 1.5 kcal/mol.

On to A52I V74A, for which the “ddG of mutation (higher = less stable)” value is -1.19 kcal/mol; the Tm is 56.9 °C; the “change of melting temperature, mutant” value came to 3.9 °C; the “unfolding enthalpy (van 't Hoff)” value was found to be 102 kcal/mol.

A52I V74L: the “ddG of mutation (higher = less stable)” value is -1.19 kcal/mol; the Tm came out at 56.9 °C; the “change of melting temperature, mutant” value turned out to be 3.9 °C; the “unfolding enthalpy (van 't Hoff)” value was determined as 122 kcal/mol.

Source of the values: FireProtDB (doi:10.1074/jbc.272.30.18686).
